US20250205353A1 (SYNAFFIX B V, published 2025)

Assays:
[1] = target: T1, Nectin-4 on SK-BR-3 cells (UniProt Q96NY8 32-510, limits assumed); assay: cell-based or functional assay
T1 sequence (looked up): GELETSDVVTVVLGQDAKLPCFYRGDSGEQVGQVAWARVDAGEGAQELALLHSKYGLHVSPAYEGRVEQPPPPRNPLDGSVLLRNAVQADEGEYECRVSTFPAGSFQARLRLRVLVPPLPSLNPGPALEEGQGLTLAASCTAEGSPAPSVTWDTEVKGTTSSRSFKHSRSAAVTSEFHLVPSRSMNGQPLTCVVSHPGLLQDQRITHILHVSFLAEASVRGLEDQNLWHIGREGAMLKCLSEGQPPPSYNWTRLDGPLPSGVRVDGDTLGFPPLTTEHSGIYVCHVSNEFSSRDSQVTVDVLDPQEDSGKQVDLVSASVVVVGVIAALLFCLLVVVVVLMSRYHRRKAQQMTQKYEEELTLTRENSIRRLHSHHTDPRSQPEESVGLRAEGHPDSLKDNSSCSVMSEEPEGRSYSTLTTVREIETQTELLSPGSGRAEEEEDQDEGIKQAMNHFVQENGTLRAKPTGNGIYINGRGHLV

[2] = target: T2, Human Nectin-4 (PVRL4 Protein, ECD, His Tag) (human, UniProt Q96NY8 32-349); assay: ELISA; His-tagged Nectin-4 ECD on nickel NTA plates, detection with anti-human IgG-HRP
T2 construct: extracellular domain; Recombinant protein captured on nickel NTA plates; also called hNectin-4; PVRL4-His; not shown: His tag
T2 sequence (looked up): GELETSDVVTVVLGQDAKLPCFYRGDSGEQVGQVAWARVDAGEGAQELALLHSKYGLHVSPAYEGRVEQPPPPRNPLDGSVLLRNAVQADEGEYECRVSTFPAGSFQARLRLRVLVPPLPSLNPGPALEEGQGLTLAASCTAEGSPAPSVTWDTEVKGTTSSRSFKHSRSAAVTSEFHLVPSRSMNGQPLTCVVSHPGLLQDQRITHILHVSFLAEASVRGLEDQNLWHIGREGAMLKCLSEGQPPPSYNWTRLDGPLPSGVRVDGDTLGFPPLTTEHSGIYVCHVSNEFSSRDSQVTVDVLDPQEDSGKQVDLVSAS
Method: Nickel NTA plates (Pierce™ Nickel coated plated, ThermoScientific™) were washed three times prior to use. Human Nectin-4 (PVRL4 Protein, ECD, His Tag) was dissolved at a concentration of […] in 0.1% BSA in PBS (PBA). 100 μL was added to each well and incubated while shaking for 1 hour at room temperature. After removal, the plate was washed 3x with 0.05% Tween-20 in PBS (washing buffer). ADCs were diluted in 0.1% PBA to a final concentration of 8 μg/mL and 100 μL was added to each well (in triplo). ADCs were incubated for 1 h at room temperature. Prior to the addition of 100 μL 1:1000 dilution of secondary antibody (Goat anti-human IgG, HRP conjugate, Invitrogen) the plate was washed 3x with washing buffer. The plate was incubated again for 1 h at room temperature and subsequently washed 3x with washing buffer and 3x with PBS. Finally, 100 μL TMB ELISA substrate (1 Step™ Turbo TMB ELISA substrate, ThermoScientific™) was added and incubated for 1 minute. The absorbance of the colorimetric signal was measured with Infinite® M1000 (Tecan) at 652 nm. Data was plotted corrected for the background (see FIG. 8).

B1: Enfortumab YTE-4 (other)
heavy: EVQLVESGGGLVQPGGSLRLSCAASGFTFSSYNMNWVRQAPGKGLEWVSYISSSSSTIYYADSVKGRFTISRDNAKNSLSLQMNSLRDEDTAVYYCARAYYYGMDVWGQGTTVTVSSASTKGPSVFPLAPSSKSTSGGTAALGCLVKDYFPEPVTVSWNSGALTSGVHTFPAVLQSSGLYSLSSVVTVPSSSLGTQTYICNVNHKPSNTKVDKRVEPKSCDKTHTCPPCPAPELLGGPSVFLFPPKPKDTLYITREPEVTCVVVDVSHEDPEVKFNWYVDGVEVHNAKTKPREEQYNSTYRVVSVLTVLHQDWLNGKEYKCKVSNKALPAPIEKTISKAKGQPREPQVYTLPPSREEMTKNQVSLTCLVKGFYPSDIAVEWESNGQPENNYKTTPPVLDSDGSFFLYSKLTVDKSRWQQGNVFSCSVMHEALHNHYTQKSLSLSPGK
light: DIQMTQSPSSVSASVGDRVTITCRASQGISGWLAWYQQKPGKAPKFLIYAASTLQSGVPSRFSGSGSGTDFTLTISSLQPEDFATYYCQQANSFPPTFGGGTKVEIKRTVAAPSVFIFPPSDEQLKSGTASVVCLLNNFYPREAKVQWKVDNALQSGNSQESVTEQDSKDSTYSLSSTLTLSKADYEKHKVYACEVTHQGLSSPVTKSFNRGEC
modifications: linker-payload 4 (BCN-HS-(vc-PABC-MMAE)2) clicked to 6-N3-GalNAc on the trimmed core GlcNAc of the heavy-chain glycan; average DAR 3.67
In the case of B1, the “IC50 (nM), in vitro cytotoxicity on SK-BR-3 cells (ATPlite luminescence)” value [1] is reported as 0.05 nM.

B2: enfortumab (I) (antibody, human IgG1, kappa)
heavy: not shown
light: B1 light
notes: IgG transiently expressed in CHO K1 cells; also called Ha22-2(2,4)6.1
B2: binds [2].

B3: enfortumab YTE (II) (antibody, human IgG1, kappa)
heavy: B1 heavy
light: B1 light
notes: also called enfortumab YTE mutant
B3: binds [2].
